Non-standard residues stand in square brackets, D forms with d. No end group written: not given here. pS = N[C@@H](COP(=O)(O)O)C(=O)O; MBP = not defined here

The text below walks through data of PMC2894451 (The Journal of Cell Biology, 2010).

For this experiment, the target named is T1, GST-CHC 331–542 fragment (UniProt Q00610 331-542).
T1 sequence: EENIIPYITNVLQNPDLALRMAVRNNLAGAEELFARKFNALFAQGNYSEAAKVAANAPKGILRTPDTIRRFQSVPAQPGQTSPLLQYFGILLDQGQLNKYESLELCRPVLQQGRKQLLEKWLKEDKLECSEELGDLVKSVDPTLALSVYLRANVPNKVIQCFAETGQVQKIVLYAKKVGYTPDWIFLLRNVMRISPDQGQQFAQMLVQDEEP
The experiment in a line: pull-down.

B1: MBP-TACC3 522–577, phosphorylated by aurora A (domain or fragment)
chain: {MBP}-EESFRDPAEVLGTGAEVDYLEQFGTSSFKESALRKQ[pS]LYLKFDPLLRDSPGRPVPV
modifications: reading uncertain
As to B1, the binding result is “binds”.
